Source: PMC10253590, “The Product of the Fission Yeast fhl1 Gene Binds to the HomolE Box and Activates In Vitro Transcription of Ribosomal Protein Genes”

B1: HD (HomolD) cold competitor (dsDNA)
DNA 1: TGAAAACAGTCACATTTTAC
DNA 2: GTAAAATGTGACTGTTTTCA
B2: HomolE probe (two tandem HomolE boxes) (dsDNA)
DNA 1: TTCGTTGAGGGTAGGGTTGAGGGTAGGGTTATGC
DNA 2: GCATAACCCTACCCTCAACCCTACCCTCAACGAA
B3: HE cold competitor (dsDNA)
DNA 1: TTCGTTGAGGGTAGGGTTGC
DNA 2: GCAACCCTACCCTCAACGAA
B4: mHE cold competitor (dsDNA)
DNA 1: TTCGTTGAGTGTAGTGTTGC
DNA 2: GCAACACTACACTCAACGAA

What was measured:
[1] = target: T1, Fhl1 (Schizosaccharomyces pombe, UniProt O14270 1-743); experiment: competition; EMSA; 50 ng cold competitor vs N1 probe; 20 mM HEPES pH 7.9, 50 mM KCl, 10 mM MgCl2, 0.1 mM EDTA, 5% glycerol, 5 mM DTT, 0.1 mM PMSF, 5 ug acetylated BSA, 50 ng poly(dG-dC), no PEG; 5 min 25 C then 15; conditions: protein: recombinant; tags: His tag (pET15b; Ni-NTA purified)
T1 sequence: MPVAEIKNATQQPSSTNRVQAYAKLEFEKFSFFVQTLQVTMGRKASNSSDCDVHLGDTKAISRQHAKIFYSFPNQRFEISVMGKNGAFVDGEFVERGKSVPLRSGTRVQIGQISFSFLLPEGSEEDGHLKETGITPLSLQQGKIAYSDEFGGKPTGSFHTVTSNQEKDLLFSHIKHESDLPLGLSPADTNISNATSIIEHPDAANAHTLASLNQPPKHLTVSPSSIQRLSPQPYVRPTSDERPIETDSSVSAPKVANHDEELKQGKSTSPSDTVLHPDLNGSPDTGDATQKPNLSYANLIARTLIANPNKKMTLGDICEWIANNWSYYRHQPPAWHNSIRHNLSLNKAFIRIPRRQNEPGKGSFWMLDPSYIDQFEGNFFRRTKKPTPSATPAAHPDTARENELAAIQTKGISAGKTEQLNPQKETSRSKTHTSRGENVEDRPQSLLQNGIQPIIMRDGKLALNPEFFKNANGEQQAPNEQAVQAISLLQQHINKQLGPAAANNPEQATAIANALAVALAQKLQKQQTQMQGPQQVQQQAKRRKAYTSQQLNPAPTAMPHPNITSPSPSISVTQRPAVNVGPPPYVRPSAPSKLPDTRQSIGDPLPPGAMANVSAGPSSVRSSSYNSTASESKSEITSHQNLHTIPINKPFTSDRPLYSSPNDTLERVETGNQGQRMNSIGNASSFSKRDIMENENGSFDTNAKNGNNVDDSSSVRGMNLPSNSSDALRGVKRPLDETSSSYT

[2] = target: T1, Fhl1; experiment: EMSA; 10 ng Fhl1; poly(dG-dC); 20 mM HEPES pH 7.9, 50 mM KCl, 10 mM MgCl2, 0.1 mM EDTA, 5% glycerol, 5 mM DTT, 0.1 mM PMSF, 5 ug acetylated BSA, 50 ng poly(dG-dC), no PEG; 5 min 25 C then 15; conditions: protein: recombinant; tags: His tag (pET15b; Ni-NTA purified); label: 32P 5' end
[3] = target: T1, Fhl1; experiment: competition; EMSA; 12.5, 25, 50 ng cold competitor vs N1 probe; 20 mM HEPES pH 7.9, 50 mM KCl, 10 mM MgCl2, 0.1 mM EDTA, 5% glycerol, 5 mM DTT, 0.1 mM PMSF, 5 ug acetylated BSA, 50 ng poly(dG-dC), no PEG; 5 min 25 C then 15; conditions: protein: recombinant; tags: His tag (pET15b; Ni-NTA purified)

Binder | binding result [1] | other results
B1 | no binding | –
B2 | – | binding result [2]: binds
B3 | – | binding result [3]: binds
B4 | no binding | –
